Our source for the self-aminoacylation values is the supplement of paper PMC9233669.

Data set [1] relates to biotinyl-Ile-oxazolone. Briefly: self-aminoacylation, catalytic enhancement (BIO) (fold over background); higher = more active; k-Seq, kA / k0A0; sequences stand for … in GGGAAUGGAUCCACAUCUACGAAUUC…UUCACUGCAGACUUGACGAAGCUG
An outline of the steps:
(§1)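 Mutagenized RNA pools with a 21-nt variable region (0.43 μM) reacted with each biotinyl-aminoacyl-oxazolone at 2–1250 μM. Reactions ran in 50 μL HEPES/NaCl/KCl/MgCl2/CaCl2 buffer with 5% acetonitrile, pH 6.9–7.0, for 90 minutes at room temperature. Streptavidin-captured RNA was quantified by triplicate qPCR and Illumina sequencing, and per-sequence fraction reacted was fit to a pseudo-first-order model with 1000 bootstraps. Catalytic enhancement is median kA divided by the uncatalyzed rate, the low-activity peak of a bimodal Gaussian fit.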

For data set [2], the system named is biotinyl-Leu-oxazolone. Briefly: self-aminoacylation, catalytic enhancement (BLO) (fold over background); higher = more active; k-Seq, kA / k0A0; sequences stand for … in GGGAAUGGAUCCACAUCUACGAAUUC…UUCACUGCAGACUUGACGAAGCUG
The procedure, abridged: as §1

Data set [3] deals with biotinyl-Val-oxazolone. Briefly: self-aminoacylation, catalytic enhancement (BVO) (fold over background); higher = more active; k-Seq, kA / k0A0; sequences stand for … in GGGAAUGGAUCCACAUCUACGAAUUC…UUCACUGCAGACUUGACGAAGCUG
The procedure, abridged:
as §1

The subject of data set [4] is biotinyl-Phe-oxazolone. Description: self-aminoacylation, catalytic enhancement (BFO) (fold over background); higher = more active; k-Seq, kA / k0A0; sequences stand for … in GGGAAUGGAUCCACAUCUACGAAUUC…UUCACUGCAGACUUGACGAAGCUG
The procedure, abridged:
as §1

The subject of data set [5] is biotinyl-Trp-oxazolone. Description: self-aminoacylation, catalytic enhancement (BWO) (fold over background); higher = more active; k-Seq, kA / k0A0; sequences stand for … in GGGAAUGGAUCCACAUCUACGAAUUC…UUCACUGCAGACUUGACGAAGCUG
The procedure, abridged:
as §1

The test system of data set [6] is biotinyl-Met-oxazolone. Description: self-aminoacylation, catalytic enhancement (BMO) (fold over background); higher = more active; k-Seq, kA / k0A0; sequences stand for … in GGGAAUGGAUCCACAUCUACGAAUUC…UUCACUGCAGACUUGACGAAGCUG
An outline of the steps: as §1

Variants at the floor of the assay were thinned out.

As to “AUUCAGCUAGGUCAUCCGGUG [Fam2.2 aminoacylation ribozyme variant]”, the self-aminoacylation is 5.29 in data set [1]; 8.88 in data set [2]; 5.44 in data set [3]; 44.2 in data set [4]; 8.08 in data set [5]; 6.6 in data set [6].
Take “CCACACUUUAAGCAAUCGGAC [Fam1B.1 aminoacylation ribozyme variant]”: the self-aminoacylation in data set [1] came out at 0.85; in data set [2], 0.737; in data set [3], 0.839; in data set [4], 0.866; in data set [5], 0.544; in data set [6], 0.664.
Consider “AUUACCCUGGCCAUCAAGUGA [Fam2.1 aminoacylation ribozyme variant]”, for which the self-aminoacylation in data set [1] came out at 0.983; in data set [2], 0.968; in data set [3], 1.01; in data set [4] it was 1.1; in data set [5], 1.67; in data set [6], 1.07.
“AUCCAUCUAGGUCAUCGGGUG [Fam2.2 aminoacylation ribozyme variant]”: the self-aminoacylation in data set [1] amounted to 4.35; in data set [2], 6.36; in data set [3], 3.94; in data set [4] it was 29.6; in data set [5] it was 5.63; in data set [6] it was 7.36.
As for “AAGUCUGCUAAUAGUCGGAAG [Fam3.1 aminoacylation ribozyme variant]”, the self-aminoacylation in data set [1] was 1.25; in data set [2], 1.87; in data set [3], 1.61; in data set [4], 18.4; in data set [5], 7.78; in data set [6], 2.09.
Turning to “CUAUUUCAAACCAUCGGUCUG [Fam1A.1 aminoacylation ribozyme variant]”, the self-aminoacylation in data set [1] came out at 1.03; in data set [2] it was 0.94; in data set [3], 0.988; in data set [4], 0.809; in data set [5], 0.708; in data set [6], 1.09.
For “AUACACCUAGGUCAUCGGAUG [Fam2.2 aminoacylation ribozyme variant]”, the self-aminoacylation in data set [1] worked out at 1.03; in data set [2], 0.994; in data set [3], 0.946; in data set [4], 0.387; in data set [5], 0.96; in data set [6], 0.978.
Regarding “AUUACGCUGGUUAUCGAGUGA [Fam2.1 aminoacylation ribozyme variant]”, the self-aminoacylation in data set [1] is 3.22; in data set [2], 5.48; in data set [3] it was 3.68; in data set [4], 27.5; in data set [5] it was 6.53; in data set [6], 5.92.
Regarding “AUUUCCAUGGUCAUCGAGUGA [Fam2.1 aminoacylation ribozyme variant]”, the self-aminoacylation in data set [1] came out at 5.22; in data set [2], 9.67; in data set [3], 5.09; in data set [4], 52.5; in data set [5], 12; in data set [6], 9.56.
Consider “AUUACCCCGGUCAUCGGGUGA [Fam2.1 aminoacylation ribozyme variant]”, for which the self-aminoacylation in data set [1] was 5.57; in data set [2] it was 15.9; in data set [3], 7.32; in data set [4], 103; in data set [5], 12.7; in data set [6], 14.4.
Consider “CCAAACUUCAAGCAAUCGGAC [Fam1B.1 aminoacylation ribozyme variant]”, for which the self-aminoacylation in data set [1] was 0.912; in data set [2], 0.789; in data set [3], 1.1; in data set [4], 1.14; in data set [5], 0.602; in data set [6] it was 0.662.
For “AAGUUUGCUAAUAGUAACAAG [Fam3.1 aminoacylation ribozyme variant]”, the self-aminoacylation came to 1.19 in data set [1]; 1.12 in data set [2]; 1.1 in data set [3]; 1.58 in data set [4]; 1.41 in data set [5]; 1.52 in data set [6].
Consider “AUUCGCCUAGGUCAGCGGGUG [Fam2.2 aminoacylation ribozyme variant]”, for which the self-aminoacylation in data set [1] is 3.91; in data set [2], 5.95; in data set [3] it was 3.96; in data set [4] it was 37.8; in data set [5], 5.11; in data set [6], 5.21.
Consider “AUUACCCUGGUGAUCGAGUGA [Fam2.1 aminoacylation ribozyme variant]”, for which the self-aminoacylation in data set [1] was found to be 2.56; in data set [2], 5.14; in data set [3], 2.69; in data set [4] it was 25.1; in data set [5], 5.95; in data set [6] it was 5.19.
As to “CUACUUCUAACAAUCGGACUG [Fam1A.1 aminoacylation ribozyme variant]”, the self-aminoacylation in data set [1] was determined as 0.566; in data set [2] it was 0.495; in data set [3], 0.572; in data set [4], 0.602; in data set [5], 0.419; in data set [6], 0.398.
In the case of “AUUCACCUAGGCCGUCGGGUG [Fam2.2 aminoacylation ribozyme variant]”, the self-aminoacylation in data set [1] is 1.87; in data set [2], 2.74; in data set [3] it was 2.3; in data set [4] it was 17.1; in data set [5], 2.11; in data set [6] it was 1.94.
Consider “CUACUUCUAACAAUCGGUCUG [Fam1A.1 aminoacylation ribozyme variant]”, for which the self-aminoacylation turned out to be 0.658 in data set [1]; 0.585 in data set [2]; 0.693 in data set [3]; 0.785 in data set [4]; 0.532 in data set [5]; 0.608 in data set [6].
As to “CUACUUUACACAAUCGGUCUG [Fam1A.1 aminoacylation ribozyme variant]”, the self-aminoacylation in data set [1] is 0.87; in data set [2], 0.742; in data set [3], 0.805; in data set [4], 0.601; in data set [5] it was 0.543; in data set [6] it was 0.872.
Regarding “CUAGUUCAAACAAACGGUCUG [Fam1A.1 aminoacylation ribozyme variant]”, the self-aminoacylation in data set [1] stood at 0.913; in data set [2], 0.91; in data set [3], 0.77; in data set [4] it was 0.831; in data set [5], 0.823; in data set [6] it was 0.814.
Turning to “AUUACCCUGGUCAUUGGGUGA [Fam2.1 aminoacylation ribozyme variant]”, the self-aminoacylation in data set [1] amounted to 5.58; in data set [2], 13.1; in data set [3], 5.6; in data set [4], 93.4; in data set [5], 12.9; in data set [6] it was 12.1.
As for “AUUACCCUGGUCAUCGAUUGU [Fam2.1 aminoacylation ribozyme variant]”, the self-aminoacylation is 0.753 in data set [1]; 0.736 in data set [2]; 0.785 in data set [3]; 0.73 in data set [4]; 0.386 in data set [5]; 0.73 in data set [6].
